Measured values published in patent US20220380459A1.
Where a chain is given by its changes, count along the chain named.

B1: ADI-11828 Fab (Fab, V domains shown)
VH: EVQLVESGGGLVQPGGSLRLSCAASGFTFSSYWMSWVRQAPGKGLEWVANINQDGSEVYYVDSVKGRFTISRDNAKNSLYLQMNSLRAEDTAVYYCARDVGPGIAYQGHFDYWGQGTLVTVSS
VL: DIQMTQSPSSLSASVGDRVTITCRASQSIYYYLNWYQQKPGKAPKLLIYAASSRQSGVPSRFSGSGSGTDFTLTISSLQPEDFATYYCQQVYDTPLTFGGGTKVEIK
B2: ADI-11825 Fab (Fab, V domains shown)
VH: EVQLVESGGGLVQPGGSLRLSCAASGFTFGGYWMSWVRQAPGKGLEWVANINQDGSEEYYVDSVKGRFTISRDNAKNSLYLQMNSLRAEDTAVYYCAREANYYGNVGDDYWGQGTLVTVSS
VL: B1 VL with Y31N, S53N, R54L, Q55H, V91A, Y92F, D93H, T94V, L96I
B3: ADI-11826 Fab (Fab, V domains shown)
VH: B2 VH with G30P, E58V
VL: B1 VL with Y31N, R54T, V91A, Y92F, D93H, T94V, L96I
B4: ADI-10157 Fab (Fab, V domains shown)
VH: QVQLQESGPGLVKPSETLSLTCTVSGGSISSYYWSWIRQPPGKGLEWIGSIYYSGSTNYNPSLKSRVTISVDTSKNQFSLKLSSVTAADTAVYYCARVGGVYSTIETYGMDVWGQGTTVTVSS
VL: EIVMTQSPATLSVSPGERATLSCRASQSVSSNLAWYQQKPGQAPRLLIYGASTRATGIPARFSGSGSGTEFTLTISSLQSEDFAVYYCQQYTVYPPTFGGGTKVEIK
B5: ADI-11812 Fab (Fab, V domains shown)
VH: QVQLVQSGAEVKKPGASVKVSCKASGYTFEIYYMHWVRQAPGQGLEWMGIINPSSGSTVYAQKFQGRVTMTRDTSTSTVYMELSSLRSEDTAVYYCARGAGYDDEDMDVWGKGTTVTVSS
VL: DIQMTQSPSSVSASVGDRVTITCRASQGIDSWLAWYQQKPGKAPKLLIYAASSLQSGVPSRFSGSGSGTDFTLTISSLQPEDFATYYCQQAHSYPLTFGGGTKVEIK
B6: ADI-10161 Fab (Fab, V domains shown)
VH: EVQLVESGGGLVQPGGSLRLSCAASGFTFSSYWMSWVRQAPGKGLEWVANINQDGSEKYYVDSVKGRFTISRDNAKNSLYLQMNSLRAEDTAVYYCAREGGDSWYHAFDIWGQGTMVTVSS
VL: B5 VL with D30S, S53N, A91K, H92L, Y94L
B7: ADI-11839 Fab (Fab, V domains shown)
VH: QVQLVQSGAEVKKPGASVKVSCKASGYTFSNYYMHWVRQAPGQGLEWMGWINPFSGGTRYAQKFQGRVTMTRDTSTSTVYMELSSLRSEDTAVYYCARDVGSSAYYYMDVWGKGTTVTVSS
VL: B5 VL with R24E, Q27K, D30S, S53D, H92F, S93L, Y94F, L96P
B8: ADI-11830 Fab (Fab, V domains shown)
VH: B1 VH with Q53T
VL: B1 VL with S28V, Y31S, R54L, Q55K
B9: ADI-10177 Fab (Fab, V domains shown)
VH: EVQLVESGGGLVQPGGSLRLSCAASGFTFSSYWMSWVRQAPGKGLEWVANIKQDGSEKYYVDSVKGRFTISRDNAKNSLYLQMNSLRAEDTAVYYCARPLNAGELDVWGQGTMVTVSS
VL: B5 VL with S10T, V11L, G28S, D30S, A50E, Q55E, D70E, E81D, A91L, H92E
B10: ADI-11815 Fab (Fab, V domains shown)
VH: B5 VH with E30G, I31T, S55R
VL: B5 VL
B11: ADI-11807 Fab (Fab, V domains shown)
VH: B9 VH with S30G, N50T, Y59S
VL: DIQMTQSPSTLSASVGDRVTITCRASQSISSWLAWYQQKPGKAPKLLIYEASSLESGVPSRFSGSGSGTEFTLTISSLQPDDFATYYCQQSQSYPPITFGGGTKVEIK
B12: ADI-11809 Fab (Fab, V domains shown)
VH: B9 VH with S30P, N50T, Q53R, Y59G
VL: B11 VL
B13: ADI-10159 Fab (Fab, V domains shown)
VH: EVQLVESGGGLVQPGGSLRLSCAASGFTFSSYGMSWVRQAPGKGLEWVANIKQDGSEKYYVDSVKGRFTISRDNAKNSLYLQMNSLRAEDTAVYYCAREGGPYYDSSGYFVYYGMDVWGQGTTVTVSS
VL: DIQMTQSPSTLSASVGDRVTITCRASQSISSWLAWYQQKPGKAPKLLIYDASSLESGVPSRFSGSGSGTEFTLTISSLQPDDFATYYCQQYESFPTFGGGTKVEIK
B14: ADI-11819 Fab (Fab, V domains shown)
VH: EVQLVESGGGLVKPGGSLRLSCAASGFTFSSYAMSWVRQAPGKGLEWVSSISSSSEGIYYADSVKGRFTISRDNAKNSLYLQMNSLRAEDTAVYYCAREGGPYYDSSGYFVYYGMDVWGQGTTVTVSS
VL: B13 VL with Q27N, D50E, L54T, E55K, E92D, S93D, F94L
B15: ADI-11776 Fab (Fab, V domains shown)
VH: EVQLLESGGGLVQPGGSLRLSCAASGFTFSKYTMSWVRQAPGKGLEWVSAIVGSGESTYFADSVKGRFTISRDNSKNTLYLQMNSLRAEDTAVYYCAREGGPYYDSSGYFVYYGMDVWGQGTTVTVSS
VL: B13 VL with D50K, E92D, S93D, F94L
B16: ADI-11835 Fab (Fab, V domains shown)
VH: QLQLQESGPGLVKPSETLSLTCTVSGGSISSTDYYWGWIRQPPGKGLEWIGSIGYSGTYYNPSLKSRVTISVDTSKNQFSLKLSSVTAADTAVYYCARETAHDVHGMDVWGQGTTVTVSS
VL: EIVLTQSPATLSLSPGERATLSCRASHSVYSYLAWYQQKPGQAPRLLIYDASNRATGIPARFSGSGSGTDFTLTISSLEPEDFAVYYCQQYDNLPTFGGGTKVEIK

The binders below were run against human CD33 S128N (human) (UniProt P20138) (assay: SPR, Fab captured, 37C).
Chain of human CD33 S128N (human) (P20138 18-259 S128N): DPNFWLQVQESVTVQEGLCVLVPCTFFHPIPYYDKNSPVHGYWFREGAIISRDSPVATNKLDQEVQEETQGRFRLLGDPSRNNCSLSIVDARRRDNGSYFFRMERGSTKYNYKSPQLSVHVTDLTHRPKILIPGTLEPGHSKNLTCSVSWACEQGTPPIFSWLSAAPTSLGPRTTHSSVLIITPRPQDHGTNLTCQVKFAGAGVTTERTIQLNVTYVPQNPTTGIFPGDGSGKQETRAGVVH

Row | Kd | koff | kon | Binder
1 | 5.41 nM | 0.00742 s⁻¹ | 1.37e+06 M⁻¹ s⁻¹ | B1
2 | 3.09 nM | 0.00649 s⁻¹ | 2.1e+06 M⁻¹ s⁻¹ | B2
3 | 2.65 nM | 0.00574 s⁻¹ | 2.17e+06 M⁻¹ s⁻¹ | B3
4 | 163 nM | 0.00924 s⁻¹ | 56500 M⁻¹ s⁻¹ | B4
5 | 2.01 nM | 0.00112 s⁻¹ | 556000 M⁻¹ s⁻¹ | B5
6 | 63.6 nM | 0.0385 s⁻¹ | 605000 M⁻¹ s⁻¹ | B6
7 | 29.5 nM | 0.0284 s⁻¹ | 963000 M⁻¹ s⁻¹ | B7

Each binder was assayed against human CD33 R69G (human) (UniProt P20138) (assay: SPR, Fab captured, 37C).
Chain of human CD33 R69G (human) (P20138 18-259 R69G): as the sequence (P20138 18-259 S128N) above, with R52G, N111S counted along it

Row | Kd | koff | kon | Binder
8 | 2.94 nM | 0.00663 s⁻¹ | 2.27e+06 M⁻¹ s⁻¹ | B8
9 | 6.03 nM | 0.007 s⁻¹ | 1.16e+06 M⁻¹ s⁻¹ | B1
10 | 3.74 nM | 0.00695 s⁻¹ | 1.86e+06 M⁻¹ s⁻¹ | B2
11 | 3.83 nM | 0.00723 s⁻¹ | 1.89e+06 M⁻¹ s⁻¹ | B3
12 | 17.8 nM | 0.0287 s⁻¹ | 1.56e+06 M⁻¹ s⁻¹ | B4
13 | – | – | 230000 M⁻¹ s⁻¹ | B9
14 | 4.34 nM | 0.0013 s⁻¹ | 300000 M⁻¹ s⁻¹ | B10
15 | 6.74 nM | 0.00228 s⁻¹ | 338000 M⁻¹ s⁻¹ | B5
16 | 0.43 nM | 0.000259 s⁻¹ | 597000 M⁻¹ s⁻¹ | B11
17 | 0.22 nM | 0.000179 s⁻¹ | 815000 M⁻¹ s⁻¹ | B12
18 | 5.68 nM | 0.00243 s⁻¹ | 426000 M⁻¹ s⁻¹ | B13
19 | 0.09 nM | 0.000244 s⁻¹ | 2.78e+06 M⁻¹ s⁻¹ | B14
20 | 0.22 nM | 0.000426 s⁻¹ | 1.98e+06 M⁻¹ s⁻¹ | B15
21 | 0.67 nM | 0.00205 s⁻¹ | 3.07e+06 M⁻¹ s⁻¹ | B16
22 | 48.9 nM | 0.0307 s⁻¹ | 629000 M⁻¹ s⁻¹ | B6
